We go through 21 molecules from patent US20160376353A1 (DECIMMUNE THERAPEUTICS, published 2016).

Numbering of substitutions follows the chain as printed. Numbers in names are those of the source. Ends that are not written are not given here.

The labels stand for the following.
T1: N2 peptide (non-muscle myosin neo-epitope N2 12mer sequence)
T1 construct: also called N2 12-mer peptide
T1 peptide: LMKNMDPLNDNV

T2: Biotin-labeled N2 peptide (also: biotin label, position not given here)
T2 construct: also called immobilized N2
T2 peptide: LMKNMDPLNDNV

B1: Chimeric 21G6, human heavy chain constant region IgG1 (wild type) (antibody, V domains shown)
VH: QVQLQQPGAELVKPGASVKLSCKASGYTFTSYYMYWVKQRPGQGLEWIGGINPSNGGTNFNEKFKSKATLTVDKSSSTAYMQLSSLTSEDSAVYYCTRWGYDREWFAYWGQGTLVTVSA
VL: DIVMTQAAPSVPVTPGESVSISCRSSKSLLHSNGNTYLYWFLQRPGQSPQVLIYRMSNLASGVPDRFSGSGSGTAFTLRISRVEAEDVGVYYCMQHLEYPFTFGSGTKLEIKR
notes: also called CHIgG1 / Ch; ch21G6 IgG1
B2: Chimeric 21G6, human heavy chain constant region IgG4 (antibody, V domains shown)
VH: B1 VH
VL: B1 VL
notes: Human IgG4 constant region; also called CHIgG4 / Ch; ch21G6 IgG4
B3: H2-21G6 / L2-21G6, wild type human IgG1 (antibody, V domains shown)
VH: QVQLVQSGAEVKKPGASVKVSCKASGYTFTSYYMYWVRQAPGQGLEWIGGINPSNGGTNFNEKFKSKATMTVDKSTSTAYMELRSLRSDDSAVYYCTRWGYDREWFAYWGQGTLVTVSS
VL: DIVMTQSPLSLPVTPGEPASISCRSSKSLLHSNGNTYLYWFLQKPGQSPQLLIYRMSNLASGVPDRFSGSGSGTDFTLKISRVEAEDVGVYYCMQHLEYPFTFGQGTKLEIKR
notes: also called H2/L2
B4: H2-21G6 / L2-21G6, human IgG1 N297Q (antibody, V domains shown)
VH: B3 VH
VL: B3 VL
notes: also called H2/L2 N297Q
B5: H3-21G6 / L1-21G6, wild type human IgG1 (antibody, V domains shown)
VH: B3 VH with A16S, M70I, R84S, D89E, S91T
VL: DIVMTQSPATLSVSPGERATISCRSSKSLLHSNGNTYLYWFQQKPGQPPKVLIYRMSNLASGVPARFSGSGSGTDFTLTISSVEPEDFATYYCMQHLEYPFTFGGGTKLEIKR
notes: also called H3/L1
B6: H3-21G6 / L1-21G6, human IgG1 N297Q (antibody, V domains shown)
VH: B3 VH with A16S, M70I, R84S, D89E, S91T
VL: B5 VL
notes: also called H3/L1 N297Q
B7: H2-21G6 / L3-21G6, wild type human IgG1 (antibody, V domains shown)
VH: B3 VH
VL: B3 VL with S7T, P12S, V13Y, E17Q
notes: also called H2/L3
B8: H2-21G6 / L3-21G6, human IgG1 N297Q (antibody, V domains shown)
VH: B3 VH
VL: B3 VL with S7T, P12S, V13Y, E17Q
notes: also called H2/L3 N297Q
B9: H2-21G6 / L1-21G6, wild type human IgG1 (antibody, V domains shown)
VH: B3 VH
VL: B5 VL
notes: also called H2/L1
B10: H1-21G6 / L2-21G6, wild type human IgG1 (antibody, V domains shown)
VH: B3 VH with K12V, V20L, R38K, M70L, T76A, R84S, D89E, S91T
VL: B3 VL
notes: also called H1/L2
B11: H3-21G6 / L3-21G6, wild type human IgG1 (antibody, V domains shown)
VH: B3 VH with A16S, M70I, R84S, D89E, S91T
VL: B3 VL with S7T, P12S, V13Y, E17Q
notes: also called H3/L3
B12: H1-21G6 / L1-21G6, human IgG1 N297Q (antibody, V domains shown)
VH: B3 VH with K12V, V20L, R38K, M70L, T76A, R84S, D89E, S91T
VL: B5 VL
notes: also called H1/L1 N297Q
B13: H1-21G6 / L3-21G6, wild type human IgG1 (antibody, V domains shown)
VH: B3 VH with K12V, V20L, R38K, M70L, T76A, R84S, D89E, S91T
VL: B3 VL with S7T, P12S, V13Y, E17Q
notes: also called H1/L3
B14: H1-21G6 / L1-21G6, wild type human IgG1 (antibody, V domains shown)
VH: B3 VH with K12V, V20L, R38K, M70L, T76A, R84S, D89E, S91T
VL: B5 VL
notes: also called H1/L1
B15: H3-21G6 / L2-21G6, wild type human IgG1 (antibody, V domains shown)
VH: B3 VH with A16S, M70I, R84S, D89E, S91T
VL: B3 VL
notes: also called H3/L2
B16: H1-21G6 / L3-21G6 (Table 2, constant region not stated) (antibody, V domains shown)
VH: B3 VH with K12V, V20L, R38K, M70L, T76A, R84S, D89E, S91T
VL: B3 VL with S7T, P12S, V13Y, E17Q
notes: human kappa light chain; also called H1/L3
B17: H3-21G6 / L3-21G6 (Table 2, constant region not stated) (antibody, V domains shown)
VH: B3 VH with A16S, M70I, R84S, D89E, S91T
VL: B3 VL with S7T, P12S, V13Y, E17Q
notes: human kappa light chain; also called H3/L3
B18: H4-21G6 / L2-21G6 (Table 3B, constant region not stated) (antibody, V domains shown)
VH: B3 VH with I48M, K67R, A68V, V72T, K74T, S91T
VL: B3 VL
notes: human kappa light chain; also called H4/L2
B19: H2-21G6 / L3-21G6 (Table 2, constant region not stated) (antibody, V domains shown)
VH: B3 VH
VL: B3 VL with S7T, P12S, V13Y, E17Q
notes: human kappa light chain; also called H2/L3
B20: H3-21G6 / L2-21G6 (Table 2, constant region not stated) (antibody, V domains shown)
VH: B3 VH with A16S, M70I, R84S, D89E, S91T
VL: B3 VL
notes: human kappa light chain; also called H3/L2
B21: H2-21G6 / L1-21G6 (Table 2, constant region not stated) (antibody, V domains shown)
VH: B3 VH
VL: B5 VL
notes: human kappa light chain; also called H2/L1

In one assay the target is T1, N2 peptide (non-muscle myosin …). Put plainly: SPR (BIACORE X100), antibody captured by anti-human Fc, N2 peptide in solution. From the text:
(§1) The remaining sequences represent the germline sequences with the highest homology that encode productive antibody. All of the humanized sequences maintain the murine 21G6 CDR regions which are shown inside the boxes in FIG. 1. The humanized variable regions were cloned into a vector containing wild type human IgG1, human IgG1 containing a mutation at amino acid 297 (Asn 297 to Q297), human IgG4 containing a mutation at amino acid 228 (serine to proline) and human kappa light chain. Each antibody (heavy and light) combination was expressed by transient co-transfection in 293A cells (in the presence of low Ig serum). The antibody containing supernatants were collected and analyzed for binding to the N2 peptide by ELISA and BIACORE™ X100 system. All experiments were performed using a BIACORE™ X100 system. For antibody capture experiments, a CM5 chip was prepared by 10 ul/minute injection of EDC/NHS (N-ethyl-N′-(3-dimethylaminopropyl) carbodiimide (EDC), N-hydroxysuccinimide (NHS) for 7 minutes, followed by a 10 ul/minute injection of anti-human Fc (GE Lifesciences) at a concentration of 25 ug/ml in sodium acetate at pH 5 for 3 minutes. Ethanolamine-HCl was injected for 7 minutes at 10 ul/minute. The chimeric or humanized antibodies were captured onto flow cell 2 and N2 peptide at varying concentrations was flowed over flow cells 1 and 2 at a rate of 30 ul/minute with a contact time of 120 seconds and a dissociation period of 120 seconds. Complete removal of captured antibody was accomplished by regeneration with 3M MgCl2 for 30 seconds at a flow rate of 10 ul/minute. For peptide immobilized experiments, a CM5 chip was prepared by 10 ul/minute injection of EDC/NHS (N-ethyl-N′-(3-dimethylaminopropyl) carbodiimide (EDC), N-hydroxysuccinimide (NHS) for 7 minutes, followed by a 10 ul/minute injection of NEUTRAVIDIN® protein (ThermoFisher Pierce) at a concentration of 5 ug/ml in sodium acetate, pH 5 to an immobilization response of 100-200RU. Ethanolamine-HCl was injected for 7 minutes at 10 ul/minute. Biotin-labeled N2 peptide was captured on flow channel 2 with the goal of an experimental Rmax of about 50-100RU. Purified chimeric or humanized antibodies were flowed over both flow channels at a rate of 30 ul/min for a contact time of 120 seconds and allowed to dissociate for 600 seconds.
(In general: SPR reads the build-up and loss of mass on a sensor chip optically.)
Usually Kd stands for the constant that tells how readily two partners part at equilibrium. In the case of B1, the Kd was in the range of 6 to 7 µM.
Take B2: the Kd worked out at 4.1 µM.
For the molecule B3, the Kd was in the range of 6.4 to 8.4 µM.
B4: the Kd lay in the range of 3.1 to 3.7 µM.
On the same count and under the same terms, then B5, with 7.9 µM; and B6, with 20 µM.
Still for that read-out and setting: under B7 stands 9.56 µM; under B8, 8.8 µM; under B9, 9.8 to 11 µM.
Consider B10, for which the Kd was found to be 17 µM.
B11: the Kd was 9.38 µM.
As to B12, the Kd was determined as 9 µM.
Turning to B13, the Kd worked out at 20.9 µM.
As to B14, the Kd is 6.6 to 7.7 µM.
Regarding B15, the Kd turned out to be 11.5 µM.

Another assay has as its target T2, Biotin-labeled N2 peptide. Put plainly: SPR (BIACORE X100), biotin-N2 peptide on NeutrAvidin chip, antibody in solution; kd/ka (monovalent).
Excerpt: as §1
On to B2, for which the Kd was 0.8 µM.
With B16, the Kd worked out at 1.58 µM.
In the case of B17, the equilibrium dissociation constant (Kd) amounted to 0.9 µM.
Regarding B18, the Kd worked out at 0.1 µM.
With B19, the Kd was 0.14 µM.
For B20, the Kd worked out at 0.64 µM.
With B21, the Kd stood at 0.66 µM.

A further assay concerns the target T2, Biotin-labeled N2 peptide. Put plainly: SPR (BIACORE X100), biotin-N2 peptide on NeutrAvidin chip, antibody in solution; steady state affinity.
Excerpt: as §1, with “The” for “The remaining sequences represent the germline sequences with the highest homology that encode productive antibody. All of the humanized sequences maintain the murine 21G6 CDR regions which are shown inside the boxes in FIG. 1. The”
B2: the Kd came to 0.113 µM.
B16: the Kd worked out at 1 µM.
Turning to B19, the dissociation constant Kd was found to be 0.68 µM.
